Test results published in the supplement of paper PMC11811203.

B1: THAP1; numbered along this chain (parent)
chain: MVQSCSAYGCKNRYDKDKPVSFHKFPLTRPSLCKEWEAAVRRKNFKPTKYSSICSEHFTPDCFKRECNNKLLKENAVPTIFLCTEPHDKKEDLLEPQEQLPPPPLPPPVSQVDAAIGLLMPPLQTPVNLSVFCDHNYTVEDTMHQRKRIHQLEQQVEKLRKKLKTAQQRCRRQERQLEKLKEVVHFQKEKDDVSERGYVILPNDYFEIVEVPA

Variants of: B1
Assay: THAP1 transcriptional activity (GFP+/GFP- enrichment relative to wild-type constructs) (ratio to WT); higher = more THAP1 activity (PSMB5 reporter activation)
Settings: with PSMB5 promoter-GFP reporter
How it was run: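 In duplicate, a lentivirus-delivered library with every residue from 2–213 of human THAP1 changed to all 20 amino acids was introduced at MOI ~0.3 into THAP1-knockout HEK-293T cells carrying endogenous PSMB5 tagged by mClover3 knock-in. Five days on, BFP+ cells were binned as GFP-dim or GFP-bright, and Illumina sequencing of genomic DNA amplicons counted each variant. Activity is the bright/dim read fold change, averaged over replicates and scaled to the mean of wild-type synonymous constructs.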

THAP1 transcriptional activity: each site, then its substitutions
L177: H 0.327, A 0.268, F 0.408, R 0.3, S 0.206, V 0.404, W 0.263, P 0.192, Q 0.191, K 0.328, I 0.925, D 0.233, C 0.369, Y 0.528, N 0.361, T 0.255
R171: L 0.314, T 0.172, P 0.186, M 0.36, I 0.359, H 0.344, C 0.256, G 0.285, N 0.229, V 0.142, K 0.627, E 0.218, D 0.228, W 0.258, S 0.173
Q168: K 0.394, R 0.446, P 0.186, H 0.394, N 0.781, D 0.417, E 0.498, Y 0.173, L 0.433, F 0.256, G 0.391, W 0.157, C 0.512, S 0.477, T 0.711, V 0.249
R169: Q 0.379, P 0.132, L 0.45, M 0.388, D 0.239, C 0.292, S 0.262, Y 0.183, A 0.297, V 0.347, H 0.531, W 0.138, F 0.246, G 0.181
R172: H 0.458, F 0.247, P 0.241, Y 0.252, D 0.201, Q 0.364, V 0.288, N 0.41, C 0.157, G 0.234, W 0.267, I 0.34, L 0.328, E 0.34, A 0.396, S 0.428, K 0.684
V184: M 1.22, Q 1.09, W 0.59, A 1.55, T 1.1, D 1.11, Y 0.826, P 0.617, E 0.657, N 1.19, K 0.901, F 0.913, H 0.994, G 1.29, L 0.923, C 0.742
E182: G 0.726, S 0.933, D 1.34, P 0.778, F 0.467, A 0.871, I 0.428, V 0.698, R 1.04, Y 0.58, T 0.811, K 1.56, C 0.657, W 0.66, H 0.73
H185: G 0.927, I 0.617, F 0.469, L 0.359, K 1.87, C 0.951, M 0.723, A 1.58
V183: N 1.17, R 0.844, Q 1.52, G 0.742, H 0.519, T 1.02, L 0.753, S 1.48, W 0.798, D 0.954, A 1.11, Y 0.941, P 0.678, F 0.721, M 0.882, E 0.876, C 1.04
Q173: R 0.58, G 0.386, T 1.1, S 0.592, F 0.425, L 0.611, D 0.232, H 0.693, W 0.284, E 0.149, V 1.27, A 0.888
K181: H 0.478, L 0.421, T 0.491, G 0.53, E 0.582, C 0.297, Q 0.514, P 0.152, Y 0.36, N 0.511, D 0.296, V 0.316, S 0.298, M 0.542, W 0.418, R 0.964
K179: V 0.388, N 0.51, T 0.568, F 0.421, D 0.403, P 0.213, W 0.364, Y 0.661, G 0.4, M 0.465, Q 0.656, C 0.34, I 0.633, A 0.727, H 0.616, L 0.546
E178: I 0.832, Y 0.632, N 0.394, H 0.957, G 0.795, T 1.26, W 0.7, M 0.795, F 0.529, D 0.665, K 1.59, C 0.927, S 1.45, A 0.976, L 1.02, V 0.568, P 0.226
C170: S 0.425, R 0.609, G 0.353, N 0.728, M 0.824, T 0.457, F 0.35, Y 0.702, H 0.411, P 0.15, W 0.208, Q 0.604, A 0.663, E 0.194, D 0.173, L 0.894, K 0.26
R175: Q 0.653, C 0.503, A 0.506, L 0.692, E 0.554, Y 0.619, H 0.492, T 0.382, G 0.388, F 0.33, N 0.379, P 0.102, D 0.345, K 1.17, I 0.699, W 0.507
E174: H 0.817, P 0.189, D 0.712, T 0.836, L 1.03, S 0.847, V 0.568, F 0.564, G 0.535, Q 1.26, K 0.794, C 1.18, R 1.48
A166: N 0.382, W 0.485, C 1.14, G 0.258, M 0.882, E 0.448, Y 0.705, H 0.35, R 0.328, D 0.217, L 0.89, P 0.211, V 0.718, T 0.965
T165: W 0.39, N 1.38, R 0.898, K 0.633, Y 0.379, P 0.196, V 0.976, L 0.668, D 0.416, C 1.22, I 0.755, Q 0.517, H 0.785, E 0.6, F 0.262, S 1.6
L180: V 0.58, W 0.575, K 0.367, Y 0.439, C 0.43, D 0.256, I 0.806, M 0.868, Q 0.399, S 0.482, A 0.484, R 0.417, N 0.473, P 0.166
Q167: F 0.28, W 0.235, G 0.21, H 0.575, K 0.613, E 0.37, D 0.239, R 0.415, A 0.311, V 0.351, N 0.559, T 0.585, M 0.699, S 0.649, L 0.245, P 0.13
K164: W 0.146, I 0.252, F 0.167, P 0.28, S 0.326, M 0.258, Q 0.304, A 0.337, V 0.218, Y 0.307, D 0.173, N 0.306, H 0.316, R 1.17, E 0.343, G 0.106, L 0.298
L163: V 0.545, W 0.188
Q176: R 1.1, W 0.223, A 0.567, G 0.189, K 1.54, L 0.707, D 0.41, V 0.499, C 0.538, P 0.259, I 0.557, H 0.546, N 0.518, S 0.434
